These results are taken from patent US20260250410A1, “ANTIBODY AND USE THEREOF” (SICHUAN HUIYU PHARMACEUTICAL CO., LTD., priority 2022, published 2026).

The target of this test is T1, HuCDCP1-C (Homo sapiens, UniProt Q9H5V8).
T1 construct: made in house; host or cells: HEK-293T
T1 sequence (Q9H5V8 30-667): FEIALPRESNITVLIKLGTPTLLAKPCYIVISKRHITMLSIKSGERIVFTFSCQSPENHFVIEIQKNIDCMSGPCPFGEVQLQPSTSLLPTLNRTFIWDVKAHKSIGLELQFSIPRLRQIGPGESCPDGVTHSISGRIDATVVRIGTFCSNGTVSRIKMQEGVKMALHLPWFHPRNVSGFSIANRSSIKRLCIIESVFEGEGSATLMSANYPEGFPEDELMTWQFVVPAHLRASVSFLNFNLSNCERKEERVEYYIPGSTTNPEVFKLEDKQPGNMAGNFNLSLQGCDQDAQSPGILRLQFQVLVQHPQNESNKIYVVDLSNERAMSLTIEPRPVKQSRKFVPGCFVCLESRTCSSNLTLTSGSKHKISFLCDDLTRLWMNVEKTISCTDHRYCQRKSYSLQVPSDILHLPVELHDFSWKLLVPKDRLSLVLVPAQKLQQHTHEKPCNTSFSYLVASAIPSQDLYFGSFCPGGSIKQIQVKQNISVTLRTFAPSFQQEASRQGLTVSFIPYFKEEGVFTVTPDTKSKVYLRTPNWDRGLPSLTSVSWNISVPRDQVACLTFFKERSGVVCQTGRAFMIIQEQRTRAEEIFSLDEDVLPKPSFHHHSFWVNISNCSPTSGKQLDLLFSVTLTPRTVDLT
Briefly: Caterra affinity of humanized anti-CDCP1 antibodies. In kind it is binding. The following applies: HuCDCP1-C 2 μg/ml immobilized. The protocol:
The humanized anti-CDCP1 antibodies obtained from Example 11 were subjected to gene cloning, constructed into pTT5 expression vector for a small amount of expression in CHO cells (Expi-CHOS: Gibco A29127), and purified with an Fc affinity column (AT Protein A Diamond Plus. No. AA402312). Antibody purity was analyzed by HPLC and determined by Nanodrop. High-throughput affinity assay was carried out for a small amount of antibodies by Caterra.

Substitutions are numbered along the chain they refer to.

B1: 1CP-112: humanized anti-CDCP1 antibody produced by 8E5; VH SEQ ID NO: 347, VL SEQ ID NO: 357 (antibody, V domains shown)
VH: QVQLVQSGSELKKPGASVKVSCKASGYTLTDFSMHWVRQAPGQGLEWMGWINTETGAPTYADDFKGRFVFSLDTSVSTAYLQISSLKAEDTAVYYCSRGRDYDPHFDYWGQGTLVTVSS
VL: EIVLTQSPATLSLSPGERATLSCRASQSISDFLHWYQQKPGQAPRLLIKYASQSISGIPARFSGSGPGSDFTLTISSVEPEDFAVYYCQSAHSFPYTFGQGTKLEIK
modifications: humanized antibody 8E5 heavy chain variable region 01; humanized antibody 8E5 light chain variable region 01
Consider B1, for which the “ka” value is 136000 M⁻¹ s⁻¹ and the “kd” value was 5e-05 s⁻¹.

B2: 1CP-113: humanized anti-CDCP1 antibody produced by 8E5; VH SEQ ID NO: 348, VL SEQ ID NO: 357 (antibody, V domains shown)
VH: B1 VH with F70L
VL: B1 VL
modifications: humanized antibody 8E5 heavy chain variable region 01; humanized antibody 8E5 light chain variable region 01
Regarding B2, the “ka” value stood at 143000 M⁻¹ s⁻¹ and the “kd” value came to 5.9e-05 s⁻¹.

B3: 1CP-114: humanized anti-CDCP1 antibody produced by 8E5; VH SEQ ID NO: 349, VL SEQ ID NO: 357 (antibody, V domains shown)
VH: B1 VH with A16E, F70L, A88S
VL: B1 VL
modifications: humanized antibody 8E5 heavy chain variable region 03; humanized antibody 8E5 light chain variable region 01
B3: the “ka” value was 161000 M⁻¹ s⁻¹ and the “kd” value came out at 0.00246 s⁻¹.

B4: 1CP-116: humanized anti-CDCP1 antibody produced by 8E5; VH SEQ ID NO: 347, VL SEQ ID NO: 358 (antibody, V domains shown)
VH: B1 VH
VL: B1 VL with A43S, P67S
modifications: humanized antibody 8E5 heavy chain variable region 01; humanized antibody 8E5 light chain variable region 02
With B4, the “ka” value came to 128000 M⁻¹ s⁻¹ and the “kd” value was determined as 4.59e-05 s⁻¹.

B5: 1CP-155: humanized anti-CDCP1 antibody produced by 8C9; VH SEQ ID NO: 343, VL SEQ ID NO: 355 (antibody, V domains shown)
VH: EVQLVESGGGLVQPGRSLRLSCTASGLTFTHYHMSWFRQAPGKGLEWVAIIRNKAYGYTTDYSASVRGRFTISRDDSKSILYLQMNSLKTEDTAVYYCVREGGYGYDGTFAYWGQGTLVTVSS
VL: DIQMTQSPSSLSASVGDRVTITCRASESVDNYGISFMNWFQQKPGQPPKLLIYAASNQGSGVPSRFSGSGSGTDFTLTISSMQPEDFATYYCQQSKEVPRTFGGGTKVEIK
modifications: humanized antibody 8C9 heavy chain variable region 01; humanized antibody 8C9 light chain variable region 02
Regarding B5, the “ka” value came to 15800 M⁻¹ s⁻¹ and the “kd” value is 0.000579 s⁻¹.

B6: 1CP-159: humanized anti-CDCP1 antibody produced by 8C9; VH SEQ ID NO: 343, VL SEQ ID NO: 356 (antibody, V domains shown)
VH: B5 VH
VL: B5 VL with Y91F
modifications: humanized antibody 8C9 heavy chain variable region 01; humanized antibody 8C9 light chain variable region 03
As for B6, the “ka” value amounted to 18000 M⁻¹ s⁻¹ and the “kd” value worked out at 0.000767 s⁻¹.

B7: 1CP-161: humanized anti-CDCP1 antibody produced by 8C9; VH SEQ ID NO: 345, VL SEQ ID NO: 356 (antibody, V domains shown)
VH: B5 VH with A24T, F37V, L45P
VL: B5 VL with Y91F
modifications: humanized antibody 8C9 heavy chain variable region 03; humanized antibody 8C9 light chain variable region 03
With B7, the “ka” value amounted to 114000 M⁻¹ s⁻¹ and the “kd” value was found to be 0.000365 s⁻¹.

B8: 1CP-160: humanized anti-CDCP1 antibody produced by 8C9; VH SEQ ID NO: 344, VL SEQ ID NO: 356 (antibody, V domains shown)
VH: B5 VH with A24T, F37V
VL: B5 VL with Y91F
modifications: humanized antibody 8C9 heavy chain variable region 02; humanized antibody 8C9 light chain variable region 03
As for B8, the “ka” value is 110000 M⁻¹ s⁻¹ and the “kd” value was 0.00042 s⁻¹.

B9: 1CP-162: humanized anti-CDCP1 antibody produced by 8C9; VH SEQ ID NO: 346, VL SEQ ID NO: 356 (antibody, V domains shown)
VH: B5 VH with A24T, F37V, A40P, G44A, L45P
VL: B5 VL with Y91F
modifications: humanized antibody 8C9 heavy chain variable region 04; humanized antibody 8C9 light chain variable region 03
On to B9, for which the “ka” value turned out to be 113000 M⁻¹ s⁻¹ and the “kd” value was found to be 0.000305 s⁻¹.

B10: 1CP-156: humanized anti-CDCP1 antibody produced by 8C9; VH SEQ ID NO: 344, VL SEQ ID NO: 355 (antibody, V domains shown)
VH: B5 VH with A24T, F37V
VL: B5 VL
modifications: humanized antibody 8C9 heavy chain variable region 02; humanized antibody 8C9 light chain variable region 02
As to B10, the “ka” value turned out to be 123000 M⁻¹ s⁻¹ and the “kd” value worked out at 0.000441 s⁻¹.

B11: 1CP-158: humanized anti-CDCP1 antibody produced by 8C9; VH SEQ ID NO: 346, VL SEQ ID NO: 355 (antibody, V domains shown)
VH: B5 VH with A24T, F37V, A40P, G44A, L45P
VL: B5 VL
modifications: humanized antibody 8C9 heavy chain variable region 04; humanized antibody 8C9 light chain variable region 02
On to B11, for which the “ka” value was found to be 109000 M⁻¹ s⁻¹ and the “kd” value was 0.000321 s⁻¹.
